# Results taken from the nanobody polyreactivity screen of Harvey et al. (2022).
# Assay: yeast display, Sf9 membrane polyspecificity reagent, FACS + sequencing; frameworks hold sequencing errors
# Procedure, shortened: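 Galactose induction of a Saccharomyces cerevisiae BJ5465 synthetic nanobody display library ran 36–48 hours. The cells were then stained for 1 hour at 4 °C with 10% biotinylated, detergent-solubilized Sf9 membrane reagent, pulled down on streptavidin microbeads and FACS-sorted into low and high (top ~1%) gates on expression and reagent-binding fluorescence. Labels for polyreactivity follow the gate of origin.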
sequence,measurement,value
QVQLVESGGGLVQAGGSLRLSCPASGFIFYDYAMGWYRQAPGKERELVAAISSGGSTNYADSVKGRFTISRDNAKNTVYLQMNSLKPEDTAVYYCAADDRSYATWKRDYDYWGQGTQVTVSS,polyreactivity (PSR sort gate),low polyreactivity
QVQLVESGGGLVQAGGSLRLSCPASGFTFGSYAMGWYRQAPGKETEFVAVITRSGRTNYADSVKGRFTISRDNAKNTVYLQMNSLKPEDTAVYYCYADDVDDEVSPDLTEMDYWGQGTQVTVSS,polyreactivity (PSR sort gate),low polyreactivity
QVQLVESGGGLVQAGGSLRLSCPASGFTFGYYAMGWYRQSPGKESELVATITSSGASTYADSVKGRFTISGDNAKNTVYLQMISLKPEDTAVYYCAADRLPSYWSWYGYDYWVQGTQVTVSS,polyreactivity (PSR sort gate),high polyreactivity
QVQLVESGGGLVQAGGSLRLSCPASGFTIRRNAMGCYRQAPGKERELVAAITRGGGSTYYADSVKGRFTISRDNAKNTVYLQMNSLKPEDTAVYYCSADGYYQYESWGQGTQVTVSS,polyreactivity (PSR sort gate),high polyreactivity
QVQLVESGGGLVQAGGSLRLSCPASGFYAMGWYRQAPGKERELVAAIRGSGSSTYYADSVKGRFTISRDNAKNTVYLQMNSLKPEDTAVYYCAKQGYLVWSGWRWYDYWGQGTQVTVSS,polyreactivity (PSR sort gate),low polyreactivity
QVQLVESGGGLVQAGGSLRLSCPASGIIFDRNAMGWYRQAPVKERELVAAITGSGGSTYYADSVKGRFTISRDNAKNTVYLQMNSLKPEDTAVYYCAATYLSRWTLYDYWGQGTQVTVSS,polyreactivity (PSR sort gate),high polyreactivity
QVQLVESGGGLVQAGGSLRLSCPASGINFIFYAMAWYREAPGKERELVATIRRSGSTYYADSVKGRFTISRDNAKNTVYLQMNSLKPEDTAVYYCNARYPYSYGDYWGQGTQVTVSS,polyreactivity (PSR sort gate),high polyreactivity
QVQLVESGGGLVQAGGSLRLSCPASGITFGTNAMGWYIQAPGKERELVAAISKRGSSTYYADSVKGRFTISRDNAKNTVYLQMNSLKPEDTAVYYCNVVDERTRNLSKFYYWGQGTQVTVSS,polyreactivity (PSR sort gate),high polyreactivity
QVQLVESGGGLVQAGGSLRLSCPASGLTFAYYTMGWYRQSPGKERELVADISRSGGSTYYADSVKGRFTISRDNAKNTVYLQMNSLKPEDSAVYYCAARANVYTKKRDYWGQGTQVTVSW,polyreactivity (PSR sort gate),high polyreactivity
QVQLVESGGGLVQAGGSLRLSCPASGRIFDYYAMGRYRQAPGKERELVARITSGGTTNYADSVKGRFTISRDNAKNTVFLQMNSLKPEDTAVYYCNAQDYCDPLQMDYWGQGTQVTVSS,polyreactivity (PSR sort gate),low polyreactivity
QVQLVESGGGLVQAGGSLRLSCPASGRIFKWYAMGWYRPAPGKERELVAAISWSGGRTYYADSVKGRFTISRDNAKNTVYLQMHSVKPEDTAVYYCAAAIRYRNYVYLYDYWGQGTQVTVSS,polyreactivity (PSR sort gate),high polyreactivity
QVQLVESGGGLVQAGGSLRLSCPASGRTFRYYAMGWYRQAPGKERELVAAITANGGSTFYADSVKGRFTISRDNAKNTVYLQMNSLKPEDTAVYYCAARFYTSSRYNYWGQGTQVTVSS,polyreactivity (PSR sort gate),high polyreactivity
QVQLVESGGGLVQAGGSLRLSCPASGRTFYRNAMGWYRQAPGKEREFVAVITWSTGTTYYADSVKGRFTISRDNAKNTVYLQMNSPKPEDTAVYYCAADSQPPHELYESIEHESWGQGTQVTVSS,polyreactivity (PSR sort gate),low polyreactivity
QVQLVESGGGLVQAGGSLRLSCPASGRTSVINAMGWYRQAPGKETELVATITWSAASTYYADSVKGRFTISRDNAKNTVYLQMNSLKPEDTAVYYCATDSAQYGYDYWGQGTQVTVSS,polyreactivity (PSR sort gate),low polyreactivity
QVQLVESGGGLVQAGGSLRLSCPASGSIFDRYAMGWYRQAPGKERELVAAISWSDSRTYYADSVKGRFTISRDNAKNTVYFQMNSLKPEDTAVYYCAADGSTWGDYRTYGYWGQGTQVTVSS,polyreactivity (PSR sort gate),low polyreactivity
QVQLVESGGGLVQAGGSLRLSCPASGSIFQGNAMGWYRQAPGKERELVAAISWSGDSTYYADSVKGRFTISRDNAKNTVYLQMNSLKPEDTAVYYCNAEWTRDFYEYDYWGQGTQVTVSS,polyreactivity (PSR sort gate),low polyreactivity
QVQLVESGGGLVQAGGSLRLSCPASGSIFYENAMGWYRQAPGKARELVAAISRSGGSTYYADSVKGRFTISRDNAKNTVYLQMNSLKPEDTAVYYCNTEGGVIRRYWYDYWGQGTQVTVSS,polyreactivity (PSR sort gate),low polyreactivity
QVQLVESGGGLVQAGGSLRLSCPASGSTFWYYDMGWSRQAPGKERELVAAISGSGGRTYYADSVKGRFTISRDNAKNTVYLQMNSLKPEDTAVYYCAADYYWSADFKYNDWGQGTQVTVAS,polyreactivity (PSR sort gate),low polyreactivity
QVQLVESGGGLVQAGGSLRLSCPASGYTFYVYAMGWYRQAPGKERELVAAIGGGSTNYADSVKGRFTISRDNAKNTVYLQMNSLKPEDTAVYYCAARRYYKFYYWGQGTQVTVSS,polyreactivity (PSR sort gate),high polyreactivity
QVQLVESGGGLVQAGGSLRLSCPDSGFIFYLYDMGWYRQAPGKEREVVAAITDRGGSTYYADSVKGRFTITRDNAKITVYLQLKSLKPEDTAVYSCAAASSAIDSSVTMDYWGQGTQVTVSS,polyreactivity (PSR sort gate),low polyreactivity
QVQLVESGGGLVQAGGSLRLSCSASGGTFITNAMGWYRQAPGKERELVAAITSGGRTTYADSVKGRFTISRDNAKNTVYLQMNSLKPEDTAVYYCAADHVYSYTYNFDYWGQGTQVTVSS,polyreactivity (PSR sort gate),low polyreactivity
QVQLVESGGGLVQAGGSLRLSCSASGITFEGYAMGGYRQAPGKERELVAAIRSSGTSRYYADSVKGRFTISRDNAKNTVYLQMNSQKPEDTAVYYCNRARSSSRYDYWGQGTQVTVSS,polyreactivity (PSR sort gate),low polyreactivity
QVQLVESGGGLVQAGGSLRLSCSASGITFTGYGMGWYRQAPGKERELVAAIRLRTGSTYYADSVKGRFTISRDNAKNTVYLQMNSLKPEDTAVYYCAKKWSSKYWGQGTQVTVSS,polyreactivity (PSR sort gate),high polyreactivity
QVQLVESGGGLVQAGGSLRLSCSASGLIFWAYAMGWYRQAPGKERELVAAINWRGGSTYYADSVKGRFTISRDNAKNTVYLQMNSLKPEDTAVYYCNTDFQLGEGGSYGYDYWGQGTQVTVSS,polyreactivity (PSR sort gate),low polyreactivity
QVQLVESGGGLVQAGGSLRLSCSASGLTFGNNAMGWYRQAPGKETELVAAISSDGTTYYADSVKGRFTISRDHAKNTVYLQMNSLKPEDSAVYYCAALYGPGREYDYWGQGTQVTVSS,polyreactivity (PSR sort gate),low polyreactivity
QVQLVESGGGLVQAGGSLRLSCSASGRIFDTYAMGWYRQAPGKERELVAAIRRTGGSTYYADSVKGRFTISRDNAKNTVYLQMNSLKPEDTAVYYCAAEYTVSYLRMDYWGQGTQVTVSS,polyreactivity (PSR sort gate),low polyreactivity
QVQLVESGGGLVQAGGSLRLSCSASGRILVLNAMGWYRQAPGTERELVADITSGGSTYYADSVKGRFTISRDNAKNTVYLQMNSLKPEDTAVYYCAADWNTYPDYQQSYFVSYEYNYWGQGTQVTVSS,polyreactivity (PSR sort gate),low polyreactivity
QVQLVESGGGLVQAGGSLRLSCSASGRISVFNVMGWYRQAPGKERELVAAITSGGSTIYADSVKGRFTISRDNAKNTVYLQMNSLKPEDTAVYYCAALYQFHGKIWDGDYWGQGTQVTVSS,polyreactivity (PSR sort gate),low polyreactivity
QVQLVESGGGLVQAGGSLRLSCSASGRTFSWYAMGWYRKAPGKERELVAAISYSGGSTYYADSVKGRFTISRDNAKNTVYLQMNSLKPEDTAVYYCARTRRHSQNFDYWGQGTQVIVSS,polyreactivity (PSR sort gate),high polyreactivity
QVQLVESGGGLVQAGGSLRLSCSASGRTLGRNAMGWYRPAPGKERELVAAISWGGGDTSYADSVKGRFTISRDNAKNTVYLQMNSLKPEDTAVYYCNRYYTPYRRWGYDYWGQGTQVTVSS,polyreactivity (PSR sort gate),high polyreactivity
QVQLVESGGGLVQAGGSLRLSCSASGRTSQWNAMGWYRQAPGKERELVAAISWRTGGTYYADSVKGRFTISRDKAKNTVYLQMNSLQPEDTAVYYCAAGYIGGRPQYWRIGGYWGQGTQVTVSS,polyreactivity (PSR sort gate),high polyreactivity
QVQLVESGGGLVQAGGSLRLSCSASGSIFGGYAMGWYRQAPGKEREFVAAISRRGASTYYADSVKGRYTISRDNAKNTVYLQMNSLKPEDTAVYYCNARAYGRIDGLSATYGYWGQGTQVTVSS,polyreactivity (PSR sort gate),high polyreactivity
